Consider 64 molecules from patent US20170189507A1.

For the assay, the target named is HLA-A*24 (human). Kind of assay: UV-ligand exchange ELISA. (In general: In an ELISA, binding on a coated surface is turned into a signal by an enzyme label.)

Regarding EYPLVINTL [peptide SEQ ID No 219], the peptide exchange yield is 50 to 75%.
DYTTWTALL [peptide SEQ ID No 165] registered a peptide exchange yield of over 75%.
In the case of EYINQGDLHEF [peptide SEQ ID No 275] it was 50 to 75%; in that of VYTLDIPVL [peptide SEQ ID No 160], over 75%.
In the case of VYRDETGELF [peptide SEQ ID No 226] it was 50 to 75%; in that of RYPDNLKHLYL [peptide SEQ ID No 280], over 75%; in that of IYLVSIPEL [peptide SEQ ID No 161], over 75%.
With RYISDQLFTNF [peptide SEQ ID No 278] the figure was over 75%; with DYLKGLASF [peptide SEQ ID No 163], over 75%; with KYTSWYVAL [peptide SEQ ID No 228], over 75%.
The molecule LYITEPKTI [peptide SEQ ID No 287] gave a peptide exchange yield of 50 to 75%.
TFSVSSHLF [peptide SEQ ID No 222] showed a peptide exchange yield of 50 to 75%.
On to VYVGGGQIIHL [peptide SEQ ID No 174], for which the peptide exchange yield fell in the range of 50 to 75%.
Regarding TYIESASEL [peptide SEQ ID No 279], the peptide exchange yield was 50 to 75%.
QYLQDAYSF [peptide SEQ ID No 272] displayed a peptide exchange yield of over 75%.
RYSTGLAGNLL [peptide SEQ ID No 221] gave a peptide exchange yield of 50 to 75%.
In the case of YYVYIMNHL [peptide SEQ ID No 225] it was 50 to 75%; in that of KFVDSTFYL [peptide SEQ ID No 282], over 75%.
With AYVVFVSTL [peptide SEQ ID No 207] the figure was 20 to 49%; with VYEDQVGKF [peptide SEQ ID No 170], 20 to 49%.
In the case of KYIPYKYVI [peptide SEQ ID No 223] it was 50 to 75%; in that of QYSSVFKSL [peptide SEQ ID No 216], over 75%.
In turn, KFSSFSLFF [peptide SEQ ID No 164] had a peptide exchange yield of 50 to 75%.
With VYWDSAGAAHF [peptide SEQ ID No 202] the figure was over 75%.
With YYKSTSSAF [peptide SEQ ID No 218] the figure was 50 to 75%; with KYPVEWAKF [peptide SEQ ID No 289], over 75%; with YYVESGKLF [peptide SEQ ID No 166], over 75%.
YFDKVVTL [peptide SEQ ID No 215] returned a peptide exchange yield of 20 to 49%.
For YFIDSTNLKTHF [peptide SEQ ID No 269], the peptide exchange yield lay within 50 to 75%.
With VYQGHTALL [peptide SEQ ID No 277] the figure was over 75%; with TYGDAGLTYTF [peptide SEQ ID No 283], 50 to 75%; with TYELRYFQI [peptide SEQ ID No 204], over 75%.
On to NYYEVHKELF [peptide SEQ ID No 270], for which the peptide exchange yield lay within 50 to 75%.
With FFPPTRQMGLLF [peptide SEQ ID No 217] the figure was over 75%.
In turn, RYPDNLKHL [peptide SEQ ID No 286] came in with a peptide exchange yield of 20 to 49%.
On to TYIKPISKL [peptide SEQ ID No 273], for which the peptide exchange yield lay in the range of 50 to 75%.
In the case of TYSVSFPMF [peptide SEQ ID No 195] it was over 75%.
For NYINRILKL [peptide SEQ ID No 167], the peptide exchange yield is over 75%.
With RYAEEVGIF [peptide SEQ ID No 199] the figure was 50 to 75%.
Regarding VYVSDIQEL [peptide SEQ ID No 288], the peptide exchange yield was in the range of 50 to 75%.
With YYGPSLFLL [peptide SEQ ID No 200] the figure was 50 to 75%; with LYNKGFIYL [peptide SEQ ID No 159], over 75%.
In the case of QYLGQIQHI [peptide SEQ ID No 268] it was 50 to 75%.
Turning to HYSQELSLLYL [peptide SEQ ID No 158], the peptide exchange yield is over 75%.
On to LYIDRPLPYL [peptide SEQ ID No 196], for which the peptide exchange yield lay within 50 to 75%.
With LFIPSSKLLFL [peptide SEQ ID No 171] the figure was 50 to 75%; with RYLNKAFHI [peptide SEQ ID No 284], 50 to 75%; with IYATEAHVF [peptide SEQ ID No 201], 50 to 75%.
In the case of LYHDIFSRL [peptide SEQ ID No 271] it was over 75%; in that of KYMVYPQTF [peptide SEQ ID No 267], over 75%; in that of AYTLIAPNI [peptide SEQ ID No 169], 50 to 75%.
Consider VFTRVSSFL [peptide SEQ ID No 162], for which the peptide exchange yield lay within 50 to 75%.
In the case of EYNQWFTKL [peptide SEQ ID No 176] it was 50 to 75%.
Consider KYQDILETI [peptide SEQ ID No 168], for which the peptide exchange yield is over 75%.
As to AYLHSHALI [peptide SEQ ID No 274], the peptide exchange yield was over 75%.
In the case of EYSLFPGQVVI [peptide SEQ ID No 197] it was 50 to 75%; in that of IFLDYEAGTLSF [peptide SEQ ID No 227], over 75%; in that of HYPPVQVLF [peptide SEQ ID No 285], 50 to 75%.
In the case of IYSWILDHF [peptide SEQ ID No 173] it was over 75%; in that of PYRLIFEKF [peptide SEQ ID No 281], 20 to 49%.
In the case of TYKDEGNDYF [peptide SEQ ID No 209] it was 50 to 75%; in that of YYEVHKELF [peptide SEQ ID No 175], over 75%.
For the molecule QYLENLEKL [peptide SEQ ID No 224], the peptide exchange yield is 50 to 75%.
With VYGFQWRHF [peptide SEQ ID No 276] the figure was over 75%.
